# Results taken from patent publication US20210230570.
# Target: Factor X (FX), P00742
# Sequence (P00742 whole entry, looked up): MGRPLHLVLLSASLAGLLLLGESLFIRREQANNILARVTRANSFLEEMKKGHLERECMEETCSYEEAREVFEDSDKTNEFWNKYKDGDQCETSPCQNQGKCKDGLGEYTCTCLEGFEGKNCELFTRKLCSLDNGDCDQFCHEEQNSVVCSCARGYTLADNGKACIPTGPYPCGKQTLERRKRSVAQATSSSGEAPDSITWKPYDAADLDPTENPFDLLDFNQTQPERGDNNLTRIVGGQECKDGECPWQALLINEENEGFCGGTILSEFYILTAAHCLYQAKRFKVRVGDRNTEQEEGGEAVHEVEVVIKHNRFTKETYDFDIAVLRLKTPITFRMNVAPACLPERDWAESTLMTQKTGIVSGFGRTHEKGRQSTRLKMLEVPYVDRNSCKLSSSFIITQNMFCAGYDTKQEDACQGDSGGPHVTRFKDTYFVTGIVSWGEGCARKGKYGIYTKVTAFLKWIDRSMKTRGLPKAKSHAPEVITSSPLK
Protein,kcat [s⁻¹],kcat/KM [M⁻¹ s⁻¹]
FIXa-Y155F/K247N/N249S/R318Y/R403E (protein) chain 1: YNSGKLEEFVQGNLERECMEEKCSFEEAREVFENTERTTEFWKQYVDGDQCESNPCLNGGSCKDDINSYECWCPFGFEGKNCELDVTCNIKNGRCEQFCKNSADNKVVCSCTEGYRLAENQKSCEPAVPFPCGRVSVSQTSKLTR chain 2: VVGGEDAKPGQFPWQVVLNGKVDAFCGGSIVNEKWIVTAAHCVETGVKITVVAGEHNIEETEHTEQNRSVIRIIPHHNYNAAINKYNHDIALLELDEPLVLNSYVTPICIADKEYTNIFLKFGSGYVSGWGRVFHKGYSALVLQYLRVPLVDRATCLRSTKFTIYNNMFCAGFHEGGRDSCQGDSGGPHVTEVEGTSFLTGIISWGEECAMKGKYGIYTKVSEYVNWIKEKTKLT,1.7,–
FIXa-Y155F/K247N/N249S/R318Y/E410N (protein) chain 1: YNSGKLEEFVQGNLERECMEEKCSFEEAREVFENTERTTEFWKQYVDGDQCESNPCLNGGSCKDDINSYECWCPFGFEGKNCELDVTCNIKNGRCEQFCKNSADNKVVCSCTEGYRLAENQKSCEPAVPFPCGRVSVSQTSKLTR chain 2: VVGGEDAKPGQFPWQVVLNGKVDAFCGGSIVNEKWIVTAAHCVETGVKITVVAGEHNIEETEHTEQNRSVIRIIPHHNYNAAINKYNHDIALLELDEPLVLNSYVTPICIADKEYTNIFLKFGSGYVSGWGRVFHKGYSALVLQYLRVPLVDRATCLRSTKFTIYNNMFCAGFHEGGRDSCQGDSGGPHVTEVEGTSFLTGIISWGEECAMKGKYGIYTKVSRYVNWIKNKTKLT,3.4,–
FIXa-Y155F/K247N/N249S/R338E/R403E (protein) chain 1: YNSGKLEEFVQGNLERECMEEKCSFEEAREVFENTERTTEFWKQYVDGDQCESNPCLNGGSCKDDINSYECWCPFGFEGKNCELDVTCNIKNGRCEQFCKNSADNKVVCSCTEGYRLAENQKSCEPAVPFPCGRVSVSQTSKLTR chain 2: VVGGEDAKPGQFPWQVVLNGKVDAFCGGSIVNEKWIVTAAHCVETGVKITVVAGEHNIEETEHTEQNRSVIRIIPHHNYNAAINKYNHDIALLELDEPLVLNSYVTPICIADKEYTNIFLKFGSGYVSGWGRVFHKGRSALVLQYLRVPLVDRATCLESTKFTIYNNMFCAGFHEGGRDSCQGDSGGPHVTEVEGTSFLTGIISWGEECAMKGKYGIYTKVSEYVNWIKEKTKLT,5.3,1.4e+08
FIXa-Y155F/K247N/N249S/R338E/T343R (protein) chain 1: YNSGKLEEFVQGNLERECMEEKCSFEEAREVFENTERTTEFWKQYVDGDQCESNPCLNGGSCKDDINSYECWCPFGFEGKNCELDVTCNIKNGRCEQFCKNSADNKVVCSCTEGYRLAENQKSCEPAVPFPCGRVSVSQTSKLTR chain 2: VVGGEDAKPGQFPWQVVLNGKVDAFCGGSIVNEKWIVTAAHCVETGVKITVVAGEHNIEETEHTEQNRSVIRIIPHHNYNAAINKYNHDIALLELDEPLVLNSYVTPICIADKEYTNIFLKFGSGYVSGWGRVFHKGRSALVLQYLRVPLVDRATCLESTKFRIYNNMFCAGFHEGGRDSCQGDSGGPHVTEVEGTSFLTGIISWGEECAMKGKYGIYTKVSRYVNWIKEKTKLT,10.6,7.3e+08
FIXa-Y155F/K247N/N249S/R318Y/R338E/T343R/E410N (protein) chain 1: YNSGKLEEFVQGNLERECMEEKCSFEEAREVFENTERTTEFWKQYVDGDQCESNPCLNGGSCKDDINSYECWCPFGFEGKNCELDVTCNIKNGRCEQFCKNSADNKVVCSCTEGYRLAENQKSCEPAVPFPCGRVSVSQTSKLTR chain 2: VVGGEDAKPGQFPWQVVLNGKVDAFCGGSIVNEKWIVTAAHCVETGVKITVVAGEHNIEETEHTEQNRSVIRIIPHHNYNAAINKYNHDIALLELDEPLVLNSYVTPICIADKEYTNIFLKFGSGYVSGWGRVFHKGYSALVLQYLRVPLVDRATCLESTKFRIYNNMFCAGFHEGGRDSCQGDSGGPHVTEVEGTSFLTGIISWGEECAMKGKYGIYTKVSRYVNWIKNKTKLT,7.7,5e+08
FIXa-K247N/N249S/R318Y/R338E/T343R/E410N (protein) chain 1: YNSGKLEEFVQGNLERECMEEKCSFEEAREVFENTERTTEFWKQYVDGDQCESNPCLNGGSCKDDINSYECWCPFGFEGKNCELDVTCNIKNGRCEQFCKNSADNKVVCSCTEGYRLAENQKSCEPAVPFPCGRVSVSQTSKLTR chain 2: VVGGEDAKPGQFPWQVVLNGKVDAFCGGSIVNEKWIVTAAHCVETGVKITVVAGEHNIEETEHTEQNRSVIRIIPHHNYNAAINKYNHDIALLELDEPLVLNSYVTPICIADKEYTNIFLKFGSGYVSGWGRVFHKGYSALVLQYLRVPLVDRATCLESTKFRIYNNMFCAGFHEGGRDSCQGDSGGPHVTEVEGTSFLTGIISWGEECAMKGKYGIYTKVSRYVNWIKNKTKLT,8.8,3.2e+08
FIXa-Y155F/K247N/N249S/R318Y/T343R/R403E/E410N (protein) chain 1: YNSGKLEEFVQGNLERECMEEKCSFEEAREVFENTERTTEFWKQYVDGDQCESNPCLNGGSCKDDINSYECWCPFGFEGKNCELDVTCNIKNGRCEQFCKNSADNKVVCSCTEGYRLAENQKSCEPAVPFPCGRVSVSQTSKLTR chain 2: VVGGEDAKPGQFPWQVVLNGKVDAFCGGSIVNEKWIVTAAHCVETGVKITVVAGEHNIEETEHTEQNRSVIRIIPHHNYNAAINKYNHDIALLELDEPLVLNSYVTPICIADKEYTNIFLKFGSGYVSGWGRVFHKGYSALVLQYLRVPLVDRATCLRSTKFRIYNNMFCAGFHEGGRDSCQGDSGGPHVTEVEGTSFLTGIISWGEECAMKGKYGIYTKVSEYVNWIKNKTKLT,9,1.6e+08
FIXa-K247N/N249S/R318Y/T343R/R403E/E410N (protein) chain 1: YNSGKLEEFVQGNLERECMEEKCSFEEAREVFENTERTTEFWKQYVDGDQCESNPCLNGGSCKDDINSYECWCPFGFEGKNCELDVTCNIKNGRCEQFCKNSADNKVVCSCTEGYRLAENQKSCEPAVPFPCGRVSVSQTSKLTR chain 2: VVGGEDAKPGQFPWQVVLNGKVDAFCGGSIVNEKWIVTAAHCVETGVKITVVAGEHNIEETEHTEQNRSVIRIIPHHNYNAAINKYNHDIALLELDEPLVLNSYVTPICIADKEYTNIFLKFGSGYVSGWGRVFHKGYSALVLQYLRVPLVDRATCLRSTKFRIYNNMFCAGFHEGGRDSCQGDSGGPHVTEVEGTSFLTGIISWGEECAMKGKYGIYTKVSEYVNWIKNKTKLT,9.5,1.3e+08
FIXa-Y155F/K247N/N249S/R338E/E410N (protein) chain 1: YNSGKLEEFVQGNLERECMEEKCSFEEAREVFENTERTTEFWKQYVDGDQCESNPCLNGGSCKDDINSYECWCPFGFEGKNCELDVTCNIKNGRCEQFCKNSADNKVVCSCTEGYRLAENQKSCEPAVPFPCGRVSVSQTSKLTR chain 2: VVGGEDAKPGQFPWQVVLNGKVDAFCGGSIVNEKWIVTAAHCVETGVKITVVAGEHNIEETEHTEQNRSVIRIIPHHNYNAAINKYNHDIALLELDEPLVLNSYVTPICIADKEYTNIFLKFGSGYVSGWGRVFHKGRSALVLQYLRVPLVDRATCLESTKFTIYNNMFCAGFHEGGRDSCQGDSGGPHVTEVEGTSFLTGIISWGEECAMKGKYGIYTKVSRYVNWIKNKTKLT,7.3,4.7e+08
FIXa-Y155F/K247N/N249S/R318Y/T343R/R403E (protein) chain 1: YNSGKLEEFVQGNLERECMEEKCSFEEAREVFENTERTTEFWKQYVDGDQCESNPCLNGGSCKDDINSYECWCPFGFEGKNCELDVTCNIKNGRCEQFCKNSADNKVVCSCTEGYRLAENQKSCEPAVPFPCGRVSVSQTSKLTR chain 2: VVGGEDAKPGQFPWQVVLNGKVDAFCGGSIVNEKWIVTAAHCVETGVKITVVAGEHNIEETEHTEQNRSVIRIIPHHNYNAAINKYNHDIALLELDEPLVLNSYVTPICIADKEYTNIFLKFGSGYVSGWGRVFHKGYSALVLQYLRVPLVDRATCLRSTKFRIYNNMFCAGFHEGGRDSCQGDSGGPHVTEVEGTSFLTGIISWGEECAMKGKYGIYTKVSEYVNWIKEKTKLT,7.5,1.3e+08
FIXa-K247N/N249S/R318Y/T343R/R403E (protein) chain 1: YNSGKLEEFVQGNLERECMEEKCSFEEAREVFENTERTTEFWKQYVDGDQCESNPCLNGGSCKDDINSYECWCPFGFEGKNCELDVTCNIKNGRCEQFCKNSADNKVVCSCTEGYRLAENQKSCEPAVPFPCGRVSVSQTSKLTR chain 2: VVGGEDAKPGQFPWQVVLNGKVDAFCGGSIVNEKWIVTAAHCVETGVKITVVAGEHNIEETEHTEQNRSVIRIIPHHNYNAAINKYNHDIALLELDEPLVLNSYVTPICIADKEYTNIFLKFGSGYVSGWGRVFHKGYSALVLQYLRVPLVDRATCLRSTKFRIYNNMFCAGFHEGGRDSCQGDSGGPHVTEVEGTSFLTGIISWGEECAMKGKYGIYTKVSEYVNWIKEKTKLT,3.7,3.9e+07
FIXa-Y155F/K247N/N249S/R318Y/T343R/E410N (protein) chain 1: YNSGKLEEFVQGNLERECMEEKCSFEEAREVFENTERTTEFWKQYVDGDQCESNPCLNGGSCKDDINSYECWCPFGFEGKNCELDVTCNIKNGRCEQFCKNSADNKVVCSCTEGYRLAENQKSCEPAVPFPCGRVSVSQTSKLTR chain 2: VVGGEDAKPGQFPWQVVLNGKVDAFCGGSIVNEKWIVTAAHCVETGVKITVVAGEHNIEETEHTEQNRSVIRIIPHHNYNAAINKYNHDIALLELDEPLVLNSYVTPICIADKEYTNIFLKFGSGYVSGWGRVFHKGYSALVLQYLRVPLVDRATCLRSTKFRIYNNMFCAGFHEGGRDSCQGDSGGPHVTEVEGTSFLTGIISWGEECAMKGKYGIYTKVSRYVNWIKNKTKLT,8.1,3.1e+08
FIXa-K247N/N249S/R318Y/T343R/E410N (protein) chain 1: YNSGKLEEFVQGNLERECMEEKCSFEEAREVFENTERTTEFWKQYVDGDQCESNPCLNGGSCKDDINSYECWCPFGFEGKNCELDVTCNIKNGRCEQFCKNSADNKVVCSCTEGYRLAENQKSCEPAVPFPCGRVSVSQTSKLTR chain 2: VVGGEDAKPGQFPWQVVLNGKVDAFCGGSIVNEKWIVTAAHCVETGVKITVVAGEHNIEETEHTEQNRSVIRIIPHHNYNAAINKYNHDIALLELDEPLVLNSYVTPICIADKEYTNIFLKFGSGYVSGWGRVFHKGYSALVLQYLRVPLVDRATCLRSTKFRIYNNMFCAGFHEGGRDSCQGDSGGPHVTEVEGTSFLTGIISWGEECAMKGKYGIYTKVSRYVNWIKNKTKLT,6.1,2e+08
FIXa-Y155F/K247N/N249S/R338E/T343R/R403E (protein) chain 1: YNSGKLEEFVQGNLERECMEEKCSFEEAREVFENTERTTEFWKQYVDGDQCESNPCLNGGSCKDDINSYECWCPFGFEGKNCELDVTCNIKNGRCEQFCKNSADNKVVCSCTEGYRLAENQKSCEPAVPFPCGRVSVSQTSKLTR chain 2: VVGGEDAKPGQFPWQVVLNGKVDAFCGGSIVNEKWIVTAAHCVETGVKITVVAGEHNIEETEHTEQNRSVIRIIPHHNYNAAINKYNHDIALLELDEPLVLNSYVTPICIADKEYTNIFLKFGSGYVSGWGRVFHKGRSALVLQYLRVPLVDRATCLESTKFRIYNNMFCAGFHEGGRDSCQGDSGGPHVTEVEGTSFLTGIISWGEECAMKGKYGIYTKVSEYVNWIKEKTKLT,14.6,5.9e+08
